These results are taken from article PMC3430366.

Experiment [1] concerns the target TDPX1 Cys35Ala (Leishmania major (Friedlin strain)). Nature of the experiment: SDS-PAGE after reduction or oxidation.
The target in experiment [2] is TDPX1 Cys83Ala (Leishmania major (Friedlin strain)). Kind of experiment: SDS-PAGE after reduction or oxidation.

With TDPX1 Cys35Ala (enzyme), in experiment [1], the stoichiometry N – broadly, the number of molecules, sites or subunits per partner or assembly – was 2.

Substance TDPX1 Cys83Ala (enzyme) yielded a stoichiometry N in experiment [2] of 2.
